From publication PMC2174052 (The Journal of Cell Biology, 2002)

B2: His6–Sec4p (natural protein)
chain: MSGLRTVSASSGNGKSYDSIMKILLIGDSGVGKSCLLVRFVEDKFNPSFITTIGIDFKIKTVDINGKKVKLQLWDTAGQERFRTITTAYYRGAMGIILVYDVTDERTFTNIKQWFKTVNEHANDEAQLLLVGNKSDMETRVVTADQGEALAKELGIPFIESSAKNDDNVNEIFFTLAKLIQEKIDSNKLVGVGNGKEGNISINSGSGNSSKSNCC

Legend:
Ypt32p = biological target: T1, Ypt32p (Saccharomyces cerevisiae, UniProt P51996); experiment: GTP hydrolysis; format: biochemical; settings: with stoichiometric Sec2p (GAP activity)
T1 sequence (P51996 2-222): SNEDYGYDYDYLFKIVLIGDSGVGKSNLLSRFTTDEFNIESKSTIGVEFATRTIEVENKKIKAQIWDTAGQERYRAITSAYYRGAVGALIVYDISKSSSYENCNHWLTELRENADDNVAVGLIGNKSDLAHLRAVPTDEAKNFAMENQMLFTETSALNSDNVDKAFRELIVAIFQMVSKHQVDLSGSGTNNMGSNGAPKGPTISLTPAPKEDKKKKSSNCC

His6–Sec4p = biological target: B2; experiment: pull-down
GST–Sec2p (full-length) = biological target: T2, GST–Sec2p (full-length) (S. cerevisiae, UniProt P17065 1-759); experiment: pull-down
T2 sequence: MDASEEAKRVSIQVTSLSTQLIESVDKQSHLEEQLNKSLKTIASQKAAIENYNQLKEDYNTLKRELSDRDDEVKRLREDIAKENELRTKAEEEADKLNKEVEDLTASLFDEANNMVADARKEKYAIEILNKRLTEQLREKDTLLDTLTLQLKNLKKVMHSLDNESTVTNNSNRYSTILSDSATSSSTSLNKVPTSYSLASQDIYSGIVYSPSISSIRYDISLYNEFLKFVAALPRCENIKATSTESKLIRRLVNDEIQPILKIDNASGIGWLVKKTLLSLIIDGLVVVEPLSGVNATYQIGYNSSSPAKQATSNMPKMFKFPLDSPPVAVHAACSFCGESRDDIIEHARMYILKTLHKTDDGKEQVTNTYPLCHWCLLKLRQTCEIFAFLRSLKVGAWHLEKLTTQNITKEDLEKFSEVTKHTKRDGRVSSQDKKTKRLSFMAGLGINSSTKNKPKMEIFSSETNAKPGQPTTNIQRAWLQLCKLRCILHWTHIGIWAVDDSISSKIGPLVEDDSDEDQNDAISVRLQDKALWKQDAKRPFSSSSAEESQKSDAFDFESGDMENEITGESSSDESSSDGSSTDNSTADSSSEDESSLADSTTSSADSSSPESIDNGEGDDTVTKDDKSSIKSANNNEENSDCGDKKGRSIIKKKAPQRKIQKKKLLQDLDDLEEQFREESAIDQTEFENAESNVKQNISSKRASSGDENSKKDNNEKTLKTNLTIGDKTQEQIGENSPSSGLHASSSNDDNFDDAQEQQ

GST–Sec2-59(aa 1–374)p = biological target: T3, GST–Sec2-59(aa 1–374)p (S. cerevisiae, UniProt P17065 1-374); experiment: pull-down
T3 sequence: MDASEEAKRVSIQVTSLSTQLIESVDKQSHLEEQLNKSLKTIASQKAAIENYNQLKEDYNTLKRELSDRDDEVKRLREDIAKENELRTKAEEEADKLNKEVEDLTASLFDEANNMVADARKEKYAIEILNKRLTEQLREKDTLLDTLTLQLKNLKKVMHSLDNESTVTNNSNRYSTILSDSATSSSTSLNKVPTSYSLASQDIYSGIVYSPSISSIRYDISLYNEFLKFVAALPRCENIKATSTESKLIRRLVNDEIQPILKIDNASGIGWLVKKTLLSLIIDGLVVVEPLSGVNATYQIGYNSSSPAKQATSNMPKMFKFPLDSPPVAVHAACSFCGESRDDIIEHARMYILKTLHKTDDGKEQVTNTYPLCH

GST–Sec2-70 (aa 1–508) = biological target: T4, GST–Sec2-70 (aa 1–508) (S. cerevisiae, UniProt P17065 1-508); experiment: pull-down
T4 sequence: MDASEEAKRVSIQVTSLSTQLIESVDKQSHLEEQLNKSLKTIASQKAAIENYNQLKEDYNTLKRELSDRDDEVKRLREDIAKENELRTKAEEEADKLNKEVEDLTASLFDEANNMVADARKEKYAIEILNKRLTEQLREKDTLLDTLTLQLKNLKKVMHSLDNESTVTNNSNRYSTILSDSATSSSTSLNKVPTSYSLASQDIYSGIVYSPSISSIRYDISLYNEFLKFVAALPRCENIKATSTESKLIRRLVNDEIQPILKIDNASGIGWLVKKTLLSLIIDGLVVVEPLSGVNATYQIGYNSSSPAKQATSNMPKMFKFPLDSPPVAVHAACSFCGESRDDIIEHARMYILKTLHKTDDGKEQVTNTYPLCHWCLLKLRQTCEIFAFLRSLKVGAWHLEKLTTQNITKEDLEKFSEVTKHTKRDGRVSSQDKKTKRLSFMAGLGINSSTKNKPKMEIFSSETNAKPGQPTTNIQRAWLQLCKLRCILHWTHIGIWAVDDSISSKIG

GST–Sec2(aa 161–759) = biological target: T5, GST–Sec2(aa 161–759) (S. cerevisiae, UniProt P17065 161-759); experiment: pull-down
T5 sequence: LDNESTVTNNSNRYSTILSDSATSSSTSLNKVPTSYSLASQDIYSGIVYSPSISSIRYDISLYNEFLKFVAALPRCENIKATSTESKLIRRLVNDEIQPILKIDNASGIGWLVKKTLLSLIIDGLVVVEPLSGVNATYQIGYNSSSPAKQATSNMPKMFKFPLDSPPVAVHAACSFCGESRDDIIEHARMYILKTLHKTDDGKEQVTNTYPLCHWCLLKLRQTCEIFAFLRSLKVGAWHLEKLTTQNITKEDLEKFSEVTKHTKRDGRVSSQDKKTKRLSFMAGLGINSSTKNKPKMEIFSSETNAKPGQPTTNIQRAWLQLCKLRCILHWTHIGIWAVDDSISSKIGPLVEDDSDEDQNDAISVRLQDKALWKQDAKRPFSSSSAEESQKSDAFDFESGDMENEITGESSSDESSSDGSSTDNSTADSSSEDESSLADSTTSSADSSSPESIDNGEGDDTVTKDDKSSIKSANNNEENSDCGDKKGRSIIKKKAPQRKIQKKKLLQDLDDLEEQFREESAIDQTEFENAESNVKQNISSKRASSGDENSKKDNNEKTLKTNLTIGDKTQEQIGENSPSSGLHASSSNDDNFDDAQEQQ

## Nc1nc2c(ncn2[C@@H]2O[C@H](COP(=O)(O)OP(=O)(O)OP(=O)(O)O)[C@@H](O)[C@H]2O)c(=O)[nH]1 [GTP]
Ypt32p
  GTP hydrolysis: we observed a fivefold increase in GTP hydrolysis by Ypt32p (unpublished data)

B1: GST–Sec2(aa 1–160)p (domain or fragment)
chain: MDASEEAKRVSIQVTSLSTQLIESVDKQSHLEEQLNKSLKTIASQKAAIENYNQLKEDYNTLKRELSDRDDEVKRLREDIAKENELRTKAEEEADKLNKEVEDLTASLFDEANNMVADARKEKYAIEILNKRLTEQLREKDTLLDTLTLQLKNLKKVMHS
His6–Sec4p
  binding result: binds

## B2
GST–Sec2p (full-length)
  amount bound relative to Ypt32p (fold): 4 fold

B3: His6–Ypt32p (natural protein)
chain: MSNEDYGYDYDYLFKIVLIGDSGVGKSNLLSRFTTDEFNIESKSTIGVEFATRTIEVENKKIKAQIWDTAGQERYRAITSAYYRGAVGALIVYDISKSSSYENCNHWLTELRENADDNVAVGLIGNKSDLAHLRAVPTDEAKNFAMENQMLFTETSALNSDNVDKAFRELIVAIFQMVSKHQVDLSGSGTNNMGSNGAPKGPTISLTPAPKEDKKKKSSNCC
GST–Sec2p (full-length)
  binding result: binds
GST–Sec2-59(aa 1–374)p
  binding result: binds
GST–Sec2-70 (aa 1–508)
  binding result: binds
GST–Sec2(aa 161–759)
  binding result: binds
